From patent US20120039904A1 (Kyowa Kirin, published 2012)

T1: human ASCT2-myc/His (fusion protein in which myc/His was added to the C-terminal of human ASCT2), expressed … (human, UniProt Q15758 1-541)
T1 construct: Amino acid transporter with C-terminal myc/His tag, stably expressed in CHO/DG44 cells; cell lysates of these cells were used for Western blotting and immunoprecipitation; also called ASCT2/CHO; human ASCT2-myc/His gene-introduced CHO cell
T1 sequence: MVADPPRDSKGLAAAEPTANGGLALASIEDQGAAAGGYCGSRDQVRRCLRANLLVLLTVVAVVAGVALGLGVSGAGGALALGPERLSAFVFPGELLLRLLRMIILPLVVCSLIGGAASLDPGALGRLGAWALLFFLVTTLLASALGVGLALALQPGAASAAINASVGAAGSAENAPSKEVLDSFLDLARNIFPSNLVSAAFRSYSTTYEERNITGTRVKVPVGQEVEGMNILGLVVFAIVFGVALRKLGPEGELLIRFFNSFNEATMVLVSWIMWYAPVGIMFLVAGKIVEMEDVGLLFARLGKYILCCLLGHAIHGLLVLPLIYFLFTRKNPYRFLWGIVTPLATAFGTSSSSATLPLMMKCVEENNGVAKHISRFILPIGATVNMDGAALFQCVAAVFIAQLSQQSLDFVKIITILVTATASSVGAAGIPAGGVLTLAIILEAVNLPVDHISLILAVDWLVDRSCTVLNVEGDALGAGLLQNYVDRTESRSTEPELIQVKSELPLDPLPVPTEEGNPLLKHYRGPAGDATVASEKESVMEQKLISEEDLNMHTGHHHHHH

T2: human ASCT2 (system ASC amino acid transporter 2), endogenous on human tumour cell lines (human, UniProt Q15758 1-541)
T2 construct: Endogenous ASCT2 of cell lines KMS-11 (stated to express ASCT2 mRNA), WiDr and OPM-2; also called SLC1A5; ASCT2 on KMS-11, OPM-2, WiDr cells
T2 sequence: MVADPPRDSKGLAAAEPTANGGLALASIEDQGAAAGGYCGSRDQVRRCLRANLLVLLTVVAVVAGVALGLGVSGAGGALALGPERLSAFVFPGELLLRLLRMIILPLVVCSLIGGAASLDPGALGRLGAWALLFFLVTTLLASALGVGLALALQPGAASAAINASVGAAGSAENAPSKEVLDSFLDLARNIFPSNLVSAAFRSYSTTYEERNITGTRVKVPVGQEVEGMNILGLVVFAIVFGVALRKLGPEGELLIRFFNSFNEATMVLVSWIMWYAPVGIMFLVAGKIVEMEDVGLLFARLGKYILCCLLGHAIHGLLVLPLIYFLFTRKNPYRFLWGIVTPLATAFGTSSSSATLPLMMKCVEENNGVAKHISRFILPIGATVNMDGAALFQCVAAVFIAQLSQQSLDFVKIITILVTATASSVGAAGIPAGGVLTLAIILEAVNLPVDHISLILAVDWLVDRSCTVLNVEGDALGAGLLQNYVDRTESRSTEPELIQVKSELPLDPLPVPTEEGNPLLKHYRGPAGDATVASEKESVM

T3: mouse EL4 type ASCT2-myc/His (mouse/human chimeric ASCT2), expressed on CHO cells (human/mouse chimera, UniProt Q15758 1-541)
T3 construct: also called mEL4/CHO; mEL4
T3 sequence: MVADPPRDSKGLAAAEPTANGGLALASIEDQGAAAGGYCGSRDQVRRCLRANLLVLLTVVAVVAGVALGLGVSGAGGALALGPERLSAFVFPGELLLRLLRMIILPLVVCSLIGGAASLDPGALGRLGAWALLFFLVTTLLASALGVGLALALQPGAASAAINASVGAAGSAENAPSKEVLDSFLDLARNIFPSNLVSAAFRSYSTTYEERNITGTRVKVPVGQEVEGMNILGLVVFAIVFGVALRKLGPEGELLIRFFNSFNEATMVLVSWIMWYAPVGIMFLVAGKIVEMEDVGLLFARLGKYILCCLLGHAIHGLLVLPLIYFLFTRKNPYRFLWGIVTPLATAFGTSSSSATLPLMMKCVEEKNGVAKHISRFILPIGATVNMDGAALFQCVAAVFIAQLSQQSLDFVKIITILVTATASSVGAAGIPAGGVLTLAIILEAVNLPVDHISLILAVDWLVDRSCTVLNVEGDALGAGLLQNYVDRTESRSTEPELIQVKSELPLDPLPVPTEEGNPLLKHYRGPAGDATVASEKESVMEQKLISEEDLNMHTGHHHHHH


Legend:
[1] = biological target: T1, human ASCT2-myc/His (fusion protein in …); assay: flow cytometry on human ASCT2-myc/His gene-introduced CHO cells
[2] = biological target: T2, human ASCT2 (system ASC amino acid …); assay: flow cytometry on OPM-2 cells
Procedure: Each of the human ASCT2-myc/His gene-introduced CHO cell obtained in Example 2, and the multiple myeloma cell line OPM-2 (DSMZ Accession No. ACC50) was cultured in a 5% CO₂ incubator for 3 to 4 days at 37° C. The human ASCT2-myc/His gene-introduced CHO cells were detached with a 0.02% EDTA solution (manufactured by Nacalai Tesque), and in order to avoid the non-specific adsorption of antibodies, the cells were blocked for 30 minutes at ice temperature using 1% BSA-PBS.
The cells were seeded into a 96-well U-bottom plate so as to give a density of 1×10⁵ to 5×10⁵ cells/100 μL/well. The plates were centrifugation at 1,500 rpm for 5 minutes (05PR-22, manufactured by Hitachi Koki), and then the supernatant was removed.
As the primary antibody, the purified antibody which was a test substance was diluted to give a final concentration of 0.01 μg/mL to 10 μg/mL in 1% BSA-PBS, and dispensed to the plate at 100 μL/well, followed by reaction at ice temperature for 60 minutes. After washing the cells with 1% BSA-PBS, FITC-labeled anti-human immunoglobulin G (H+L) (manufactured by Jackson Laboratories) diluted with 1% BSA-PBS was added as the secondary antibody, followed by reaction at ice temperature for 30 minutes protected from light. The cells were washed with 1% BSA-PBS and then suspended in PBS. The fluorescence intensity of the cells was measured by a flow cytometer (Cytomics FC500 MPL, manufactured by Beckman Coulter).

[3] = biological target: T2, human ASCT2 (system ASC amino acid …); assay: flow cytometry on KMS-11 cells
[4] = biological target: T3, mouse EL4 type ASCT2-myc/His …; assay: flow cytometry on mEL4/CHO cells; '+' = presence of reactivity
Procedure: Using the mouse ASCT2/CHO and mouse/human chimeric ASCT2/CHO cells constructed in Examples 10 and 11 and FITC-labeled anti-mouse immunoglobulin G (H+L) (manufactured by Dako) or ALEXA488-labeled anti-rat immunoglobulin G […] (manufactured by Invitrogen) as the secondary antibody, the reactivity of anti-ASCT2 monoclonal antibodies KM4008, KM4012 and KM4018 was measured in the same manner as in Example 9(1).
In Table 2, the symbols “+”, “−”, and “±” represent the presence of reactivity, the absence of reactivity, and the decrease in reactivity, respectively.

[5] = biological target: T1, human ASCT2-myc/His (fusion protein in …); assay: flow cytometry on human ASCT2/CHO cells; '+' = presence of reactivity

binding result [1] | binding result [2] | binding result [3] | binding result [4] | binding result [5] | Binder
binds | binds | – | – | – | anti-ASCT2 human chimeric antibody cKM4008 (antibody, V domains shown, VH and VL of KM4008 joined to human CH and CL of vector pKANTEX93; SDS-PAGE pattern of the IgG class) VH: QIQLVQSGPELKKPGETVKISCKASGYTFTTFGMSWVKQVPGKGLKWMGWIHTYAGVPIYGDDFKGRFAFSLETSASTAYLQINNVKNEDTATYFCARRSDNYRYFFDYWGQGTTLTVSS VL: DIQMTQTTSSLSASLGDRVTISCRASQDIRNYLNWYQRKPHGTVKLLIYYTSRLHSGVPSRFSGSGSGTDYSLTISNLEQEDIATYFCQQGHTLPPTFGGGTKLEIKR
binds | binds | – | – | – | anti-ASCT2 human chimeric antibody cKM4012 (antibody, V domains shown, VH and VL of KM4012 joined to human CH and CL of vector pKANTEX93; IgG class) VH: QIQLVQSGPELKKPGETVKISCKASGYTFTTYGMSWVKQTPGKGLKWMGWIHTYSGVPIYGDDSKGRFAFSLETSGSIAYLQINNVKNEDTATYFCARRSDGYRYFFDYWGQGTTLTVSS VL: DIQMTQITSSLSASLGDRVTISCRASQDIRNYLNWYQQKPDGTVKLLIYYTSRLHSGVPSRFSGSGSGTDYSLTISNLEQEDIATYFCQQGNTLPPTFGGGTKLEIKR
– | – | binds | binds | binds | anti-ASCT2 monoclonal antibody KM4012 (antibody, mouse IgG2b, V domains shown, mouse IgG2b, kappa) VH: QIQLVQSGPELKKPGETVKISCKASGYTFTTYGMSWVKQTPGKGLKWMGWIHTYSGVPIYGDDSKGRFAFSLETSGSIAYLQINNVKNEDTATYFCARRSDGYRYFFDYWGQGTTLTVSS VL: DIQMTQITSSLSASLGDRVTISCRASQDIRNYLNWYQQKPDGTVKLLIYYTSRLHSGVPSRFSGSGSGTDYSLTISNLEQEDIATYFCQQGNTLPPTFGGGTKLEIKR

Further lines, the binder ahead of its results:

Binder | binding result [1] | binding result [2] | binding result [3] | binding result [4] | binding result [5]
anti-ASCT2 human chimeric antibody cKM4018 (antibody, V domains shown, VH and VL of KM4018 joined to human CH and CL of vector pKANTEX93; IgG class) VH: EVQLVESGGGLVQSGRSIRLSCAASGFSFSNYYMAWVRQAPSKGLEWVASITKGGGNTYYRDSVKGRFTFSRDNAKSTLYLQMDSLRSEDTATYYCARQVTIAAVSTSYFDSWGQGVMVTVSS VL: DIVLTQSPALAVSLGQRATISCKTNQKVDYYGNSYVYWYQQKPGQQPKLLIYLASNLASGIPARFSGRGSGTDFTLTIDPVEADDTATYYCQQSRNLPYTFGAGTKLELKR | binds | binds | – | – | –
anti-ASCT2 humanized antibody KM4008HV2LV3 (antibody, V domains shown, Expressed from vector pKANTEX93 with human CH and CL; SDS-PAGE pattern of an IgG class antibody) VH: QVQLVQSGSELKKPGAPVKVSCKASGYTFSTFGMSWVRQAPGQGLKWMGWIHTYAGVPIYGDDFKGRFVFSLDTSVSTAYLQISSLKAEDTAVYFCARRSDNYRYFFDYWGQGTTVTVSS VL: DIQMTQSPSSLSASLGDRVTITCRASQDIRNYLNWYQQKPGKAPKLLIYYTSRLHSGVPSRFSGSGSGTDYTLTISSLQPEDFATYFCQQGHTLPPTFGQGTKLEIK | binds | – | binds | – | –
anti-ASCT2 humanized antibody KM4008HV10LV3 (antibody, V domains shown, Expressed from vector pKANTEX93 with human CH and CL; SDS-PAGE pattern of an IgG class antibody) VH: QIQLVQSGPELKKPGAPVKISCKASGYTFTTFGMSWVKQAPGQGLKWMGWIHTYAGVPIYGDDFKGRFVFSLDTSVSTAYLQISSVKAEDTATYFCARRSDNYRYFFDYWGQGTTLTVSS VL: DIQMTQSPSSLSASLGDRVTITCRASQDIRNYLNWYQQKPGKAPKLLIYYTSRLHSGVPSRFSGSGSGTDYTLTISSLQPEDFATYFCQQGHTLPPTFGQGTKLEIK | binds | – | binds | – | –
anti-ASCT2 monoclonal antibody KM4008 (antibody, V domains shown, mouse IgG3, kappa (amplified with a mouse Ig kappa primer)) VH: QIQLVQSGPELKKPGETVKISCKASGYTFTTFGMSWVKQVPGKGLKWMGWIHTYAGVPIYGDDFKGRFAFSLETSASTAYLQINNVKNEDTATYFCARRSDNYRYFFDYWGQGTTLTVSS VL: DIQMTQTTSSLSASLGDRVTISCRASQDIRNYLNWYQRKPHGTVKLLIYYTSRLHSGVPSRFSGSGSGTDYSLTISNLEQEDIATYFCQQGHTLPPTFGGGTKLEIKR | – | – | binds | binds | binds
